Test [1] deals with human CD47 (ACROBiosystems, catalog number CD7-H5227) (human, UniProt Q08722 19-139). Nature of the test: ELISA.
In test [2] the target is recombinant human CD47-Fc (ACROBiosystems, catalog number CD7-H52A5) (human, UniProt Q08722 19-139). In words: competition ELISA; blocking CD47/SIRPα. On the technique in general: ELISA stands for enzyme-linked immunosorbent assay.
For test [3], the target named is recombinant human PD-L1 (Sino Biological Inc., catalog number 10084-H08H) (human, UniProt Q9NZQ7 19-239). In words: ELISA.
Sequence of recombinant human PD-L1 (Sino Biological Inc., catalog number 10084-H08H) (Q9NZQ7 19-239): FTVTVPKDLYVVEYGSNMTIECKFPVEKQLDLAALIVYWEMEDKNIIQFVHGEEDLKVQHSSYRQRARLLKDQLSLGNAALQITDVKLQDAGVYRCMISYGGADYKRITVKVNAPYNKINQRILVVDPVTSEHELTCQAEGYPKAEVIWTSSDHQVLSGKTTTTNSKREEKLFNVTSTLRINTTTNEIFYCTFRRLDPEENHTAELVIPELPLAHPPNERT
Test [4] addresses T1, human PD-L1-Fc (ACROBiosystems, catalog number PD1-H5258) (human, UniProt Q9NZQ7 19-238). Nature of the test: competition ELISA; blocking PD-L1/CD80.
The target in test [5] is T1, human PD-L1-Fc (ACROBiosystems, catalog …). In words: competition ELISA; blocking PD-L1/PD-1.

T1 sequence (Q9NZQ7 19-238): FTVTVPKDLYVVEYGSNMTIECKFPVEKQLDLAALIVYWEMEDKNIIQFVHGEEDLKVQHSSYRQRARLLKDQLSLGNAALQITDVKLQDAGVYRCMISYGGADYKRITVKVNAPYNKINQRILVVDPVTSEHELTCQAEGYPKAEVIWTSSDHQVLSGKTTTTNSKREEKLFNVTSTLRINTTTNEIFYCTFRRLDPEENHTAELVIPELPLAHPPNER
Sequence of human CD47 (ACROBiosystems, catalog number CD7-H5227) (Q08722 19-139): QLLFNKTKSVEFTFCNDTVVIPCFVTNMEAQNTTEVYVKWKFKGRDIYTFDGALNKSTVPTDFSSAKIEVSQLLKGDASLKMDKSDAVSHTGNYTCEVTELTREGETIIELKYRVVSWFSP
Sequence of recombinant human CD47-Fc (ACROBiosystems, catalog number CD7-H52A5) (Q08722 19-139): as above

B1: CD47 monoclonal antibody (heavy and light chain variable region sequences of the humanized sequences z11 of the antibody CD47-18-5 and the constant region … (antibody, V domains shown)
VH: QVQLVQSGAEVKKPGSSVKVSCKASGFNIEDIYMHWVRQAPGQGLEWMGRIDPANDNTKYGPKLQGRVTITADTSTNTAYMELSSLRSEDTAVYYCVRRIPTDIMDYWGQGTTVTVSS
VL: DIQMTQSPSSLSASVGDRVTITCKASQNVRTSIAWYQQKPGKAPKTLIYLASNRHTGVPSRFSGSGSGTEFTLTISNLQPEDFATYYCLQHWNYPFTFGQGTKLEIK
In general, EC50 refers to the concentration needed to bring the measured effect to its halfway point. Turning to B1, the EC50 was determined as 0.094 nM in test [1] and 2.26 nM in test [2].

B2: anti-PD-L1/anti-CD47 heterodimeric antibody BH3016 (bispecific antibody)
heavy 1: EVQLVQSGAEVKKPGSSVKVSCKASGFNIEDTYIHWVRQAPGQGLEWMGRIDPANANTKYDPKFQGRVTITADTSTNTAYMELSSLRSEDTAVYYCGRGLGAWFAYWGQGTLVTVSS
light 1: DIQMTQSPSSLSASVGDRVTITCKASQDVHTAVAWIQQKPGKSPKLLIYSASNRYTGVPSRFSGSGSGTDFTFTISSLQPEDIATYYCQQHYITPLTFGQGTKLEIKRTVAAPSVFIFPPSDEQLKSGTASVVCLLNNFYPREAKVQWKVDNALQSGNSQESVTEQDSKDSTYSLSSTLTLSKADYEKHKVYACEVTHQGLSSPVTKSFNRGEC
heavy 2: QVQLVQSGAEVKKPGSSVKVSCKASGFNIEDIYMHWVRQAPGQGLEWMGRIDPANDNTKYGPKLQGRVTITADESTSTAYMELSSLRSEDTAVYYCVRRIPTDIMDYWGQGTTVTVSSASTKGPSVFPLAPSSKSTSGGTAALGCLVKDYFPEPVTVSWNSGALTSGVHTFPAVLQSSGLYSLSSVVTVPSSSLGTQTYICNVNHKPSNTKVDKKVEPKSCDKTHTCPPCPAPELLGGPSVFLFPPKPKDTLMISRTPEVTCVVVDVSHEDPEVKFNWYVDGVEVHNAKTKPREEQYASTYRVVSVLTVLHQDWLNGKEYKCKVSNKALPAPIEKTISKAKGQPREPQVYTEPPSRDELTKNQVSLTCLVKGFYPSDIAVEWESNGQPENNYKTTPPVLDSDGSFFLLSVLTVDKSRWQQGNVFSCSVMHEALHNHYTQKSLSLSPGK
light 2: DIQMTQSPSSLSASVGDRVTITCKASQNVRTSIAWYQQKPGKAPKTLIYLASNRHTGVPSRFSGSGSGTEFTLTISNLQPEDFATYYCLQHWNYPFTFGQGTKLEIKRTVAAPSVFIFPPSDEQLKSGTASVVCLLNNFYPREAKVQWKVDNALQSGNSQESVTEQDSKDSTYSLSSTLTLSKADYEKHKVYACEVTHQGLSSPVTKSFNRGEC
With B2, the EC50 is 0.251 nM in test [3]; 0.491 nM in test [1]; 6.12 nM in test [2]; 1.29 nM in test [4]; 1.5 nM in test [5].

B3: anti-PD-L1/anti-CD47 heterodimeric antibody BH3014 (bispecific antibody)
heavy 1: EVQLVQSGAEVKKPGSSVKVSCKASGFNIEDTYIHWVRQAPGQGLEWMGRIDPANANTKYDPKFQGRVTITADTSTNTAYMELSSLRSEDTAVYYCGRGLGAWFAYWGQGTLVTVSS
light 1: DIQMTQSPSSLSASVGDRVTITCKASQDVHTAVAWIQQKPGKSPKLLIYSASNRYTGVPSRFSGSGSGTDFTFTISSLQPEDIATYYCQQHYITPLTFGQGTKLEIKRTVAAPSVFIFPPSDEQLKSGTASVVCLLNNFYPREAKVQWKVDNALQSGNSQESVTEQDSKDSTYSLSSTLTLSKADYEKHKVYACEVTHQGLSSPVTKSFNRGEC
heavy 2: QVQLVQSGAEVKKPGSSVKVSCKASGFNIEDIYMHWVRQAPGQGLEWMGRIDPANDNTKYGPKLQGRVTITADESTNTAYMELSSLRSEDTAVYYCARRIPTDIMDYWGQGTTVTVSSASTKGPSVFPLAPSSKSTSGGTAALGCLVKDYFPEPVTVSWNSGALTSGVHTFPAVLQSSGLYSLSSVVTVPSSSLGTQTYICNVNHKPSNTKVDKKVEPKSCDKTHTCPPCPAPELLGGPSVFLFPPKPKDTLMISRTPEVTCVVVDVSHEDPEVKFNWYVDGVEVHNAKTKPREEQYASTYRVVSVLTVLHQDWLNGKEYKCKVSNKALPAPIEKTISKAKGQPREPQVYTEPPSRDELTKNQVSLTCLVKGFYPSDIAVEWESNGQPENNYKTTPPVLDSDGSFFLLSVLTVDKSRWQQGNVFSCSVMHEALHNHYTQKSLSLSPGK
light 2: DIQMTQSPSSLSASVGDRVTITCKASQNVRTSIAWYQQKPGKAPKRLIYLASNRHTGVPSRFSGSGSGTEFTLTISNLQPEDFATYYCLQHWNYPFTFGQGTKLEIKRTVAAPSVFIFPPSDEQLKSGTASVVCLLNNFYPREAKVQWKVDNALQSGNSQESVTEQDSKDSTYSLSSTLTLSKADYEKHKVYACEVTHQGLSSPVTKSFNRGEC
On to B3, for which the EC50 in test [3] was determined as 0.234 nM; in test [1], 68.4 nM; in test [2] it was 802 nM; in test [4] it was 1.5 nM; in test [5] it was 1.63 nM.

B4: anti-PD-L1/anti-CD47 heterodimeric antibody BH3012h (bispecific antibody)
heavy 1: EVQLVQSGAEVKKPGSSVKVSCKASGFNIEDTYIHWVRQAPGQGLEWMGRIDPANANTKYDPKFQGRVTITADTSTNTAYMELSSLRSEDTAVYYCGRGLGAWFAYWGQGTLVTVSS
light 1: DIQMTQSPSSLSASVGDRVTITCKASQDVHTAVAWIQQKPGKSPKLLIYSASNRYTGVPSRFSGSGSGTDFTFTISSLQPEDIATYYCQQHYITPLTFGQGTKLEIKRTVAAPSVFIFPPSDEQLKSGTASVVCLLNNFYPREAKVQWKVDNALQSGNSQESVTEQDSKDSTYSLSSTLTLSKADYEKHKVYACEVTHQGLSSPVTKSFNRGEC
heavy 2: QVQLVQSGAEVKKPGSSVKVSCKASGFNIEDIYMHWVRQAPGQGLEWMGRIDPANDNTKYGPKLQGRVTITADTSTNTAYMELSSLRSEDTAVYYCVRRIPTDIMDYWGQGTTVTVSSASTKGPSVFPLAPSSKSTSGGTAALGCLVKDYFPEPVTVSWNSGALTSGVHTFPAVLQSSGLYSLSSVVTVPSSSLGTQTYICNVNHKPSNTKVDKKVEPKSCDKTHTCPPCPAPELLGGPSVFLFPPKPKDTLMISRTPEVTCVVVDVSHEDPEVKFNWYVDGVEVHNAKTKPREEQYASTYRVVSVLTVLHQDWLNGKEYKCKVSNKALPAPIEKTISKAKGQPREPQVYTEPPSRDELTKNQVSLTCLVKGFYPSDIAVEWESNGQPENNYKTTPPVLDSDGSFFLLSVLTVDKSRWQQGNVFSCSVMHEALHNHYTQKSLSLSPGK
light 2: DIQMTQSPSSLSASVGDRVTITCKASQNVRTSIAWYQQKPGKAPKTLIYLASNRHTGVPSRFSGSGSGTEFTLTISNLQPEDFATYYCLQHWNYPFTFGQGTKLEIKRTVAAPSVFIFPPSDEQLKSGTASVVCLLNNFYPREAKVQWKVDNALQSGNSQESVTEQDSKDSTYSLSSTLTLSKADYEKHKVYACEVTHQGLSSPVTKSFNRGEC
For B4, the EC50 was 0.261 nM in test [3]; 0.134 nM in test [1]; 4.73 nM in test [2]; 1.78 nM in test [4]; 1.54 nM in test [5].

B5: anti-PD-L1/anti-CD47 heterodimeric antibody BH3015 (bispecific antibody)
heavy 1: EVQLVQSGAEVKKPGSSVKVSCKASGFNIEDTYIHWVRQAPGQGLEWMGRIDPANANTKYDPKFQGRVTITADTSTNTAYMELSSLRSEDTAVYYCGRGLGAWFAYWGQGTLVTVSS
light 1: DIQMTQSPSSLSASVGDRVTITCKASQDVHTAVAWIQQKPGKSPKLLIYSASNRYTGVPSRFSGSGSGTDFTFTISSLQPEDIATYYCQQHYITPLTFGQGTKLEIKRTVAAPSVFIFPPSDEQLKSGTASVVCLLNNFYPREAKVQWKVDNALQSGNSQESVTEQDSKDSTYSLSSTLTLSKADYEKHKVYACEVTHQGLSSPVTKSFNRGEC
heavy 2: QVQLVQSGAEVKKPGSSVKVSCKASGFNIEDIYMHWVRQAPGQGLEWMGRIDPANDNTKYGPKLQGRVTITADTSTSTAYMELSSLRSEDTAVYYCVRRIPTDIMDYWGQGTTVTVSSASTKGPSVFPLAPSSKSTSGGTAALGCLVKDYFPEPVTVSWNSGALTSGVHTFPAVLQSSGLYSLSSVVTVPSSSLGTQTYICNVNHKPSNTKVDKKVEPKSCDKTHTCPPCPAPELLGGPSVFLFPPKPKDTLMISRTPEVTCVVVDVSHEDPEVKFNWYVDGVEVHNAKTKPREEQYASTYRVVSVLTVLHQDWLNGKEYKCKVSNKALPAPIEKTISKAKGQPREPQVYTEPPSRDELTKNQVSLTCLVKGFYPSDIAVEWESNGQPENNYKTTPPVLDSDGSFFLLSVLTVDKSRWQQGNVFSCSVMHEALHNHYTQKSLSLSPGK
light 2: DIQMTQSPSSLSASVGDRVTITCKASQNVRTSIAWYQQKPGKAPKRLIYLASNRHTGVPSRFSGSGSGTEFTLTISNLQPEDFATYYCLQHWNYPFTFGQGTKLEIKRTVAAPSVFIFPPSDEQLKSGTASVVCLLNNFYPREAKVQWKVDNALQSGNSQESVTEQDSKDSTYSLSSTLTLSKADYEKHKVYACEVTHQGLSSPVTKSFNRGEC
With B5, the EC50 was 0.262 nM in test [3]; 2.49 nM in test [1]; 12.8 nM in test [2]; 1.97 nM in test [4]; 1.67 nM in test [5].

The record behind these values is patent US20240052037A1 (published 2024).
